From the RNAGym collection of RNA variant scans (doi:10.1093/molbev/msab373)

B1: Azoarcus group I ribozyme (parent)
chain: GUGCCUUGCGCCGGGAAACCACGCAAGGGAUGGUGUCAAAUUCGGCGAAACCUAAGCGCCCGCCCGGGCGUAUGGCAACGCCGAGCCAAGCUUCGGCGCCUGCGCCGAUGAAGGUGUAGAGACUAGACGGCACCCACCUAAGGCAAACGCUAUGGUGAAGGCAUAGUCCAGGGAGUGGCGAAAGUCACACAAACCGG

Variants of: B1
Assay: reverse-splicing fitness (ratio to wild type); higher = more active; in vitro selection; Mg2+ level not given
Summary of the method: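 An in vitro group I ribozyme library with randomized positions was T7-transcribed and gel-purified. In triplicate, 10 pmol RNA in EPPS pH 7.5 was reacted with 50 pmoles of a 30-nt RNA substrate for 1 h at 37 °C across several added MgCl2 levels (1–48 mM), then stopped with EDTA. Products were reverse transcribed from a substrate-complementary primer, PCR-amplified and sequenced (HiSeq 4000). Fitness is a variant's read proportion after selection over that before, normalised to wild type.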

**Q.** With GUGCCUUGCGCCGGGAAACCACGCAAGGGAUGGUGUCAAAUUCGGCGAAACCUAAGCGCCCGCCCGGGCGUAUGGCAACGCAGAGCCAAGCUUCGGCGCCUGCGCCGAUGUAGGUGUAGAGACUAGACGGCACCCACCUAAGGCAAACGCUAUGGUGAAGGCAUAGUCUAGGGAGCGGCGAAAGUCACACAAACCGG [C82A A111U C169U U176C] as the variant, how does the reverse-splicing fitness read?
**A.** Its reverse-splicing fitness is 0.0132.

**Q.** Which reverse-splicing fitness does the source give for GUGCCUUGCGCCGGGAAACCACGCAAGGGAUGGUGUCAAAUUCGGCGAAACCUAAGCGCCCGCCCGGGCGUAUGGCAACGCAGAGCCAAGCUUCGGCGCCUGCGCCGAUGUAGGUGUAGAGACUAGACGGCACCCACCUAAGGCAAACGCUAUGGUGAAGGCAUAGUCUAGGGAGGGGCGAAAGUCACACAAACCGG [C82A A111U C169U U176G] here?
**A.** The reverse-splicing fitness was 0.00671.

**Q.** For GUGCCUUGCGCCGGGAAACCACGCAAGGGAUGGUGUCAAAUUCGGCGAAACCUAAGCGCCCGCCCGGGCGUAUGGCAACGCAGAGCCAAGCUUCGGCGCCUGCGCCGAUGUAGGUGUAGAGACUAGACGGCACCCACCUAAGGCAAACGCUAUGGUGAAGGCAUAGUCUAGGGAGAGGCGAAAGUCACACAAACCGG [C82A A111U C169U U176A], which reverse-splicing fitness is on record?
**A.** Its reverse-splicing fitness is 0.0152.

**Q.** For GUGCCUUGCGCCGGGAAACCACGCAAGGGAUGGUGUCAAAUUCGGCGAAACCUAAGCGCCCGCCCGGGCGUAUGGCAACGCAGAGCCAAGCUUCGGCGCCUGCGCCGAUGAAGGUGUAGCGACUAGACGGCACCCACCUAAGGCCAACGCUAUGGUGAAGGCAUAGUCCAGGGAGUGGCGAAAGUCACACAAACCGG [C82A A120C A145C], which reverse-splicing fitness is on record?
**A.** Its reverse-splicing fitness is 0.124.

**Q.** Which reverse-splicing fitness does the source give for GUGCCUUGCGCCGGGAAACCACGCAAGGGAUGGUGUCAAAUUCGGCGAAACCUAAGCGCCCGCCCGGGCGUAUGGCAACGCAGAGCCAAGCUUCGGCGCCUGCGCCGAUGAAGGUGUAGCGACUAGACGGCACCCACCUAAGGCCAACGAUAUGGUGAAGGCAUAGUCAAGGGAGCGGCGAAAGUCACACAAACCGG [C82A A120C A145C C150A C169A U176C] here?
**A.** The reverse-splicing fitness was 0.0102.

**Q.** Which reverse-splicing fitness does the source give for GUGCCUUGCGCCGGGAAACCACGCAAGGGAUGGUGUCAAAUUCGGCGAAACCUAAGCGCCCGCCCGGGCGUAUGGCAACGCAGAGCCAAGCUUCGGCGCCUGCGCCGAUGAAGGUGUAGCGACUAGACGGCACCCACCUAAGGCCAACGAUAUGGUGAAGGCAUAGUCAAGGGAGAGGCGAAAGUCACACAAACCGG [C82A A120C A145C C150A C169A U176A] here?
**A.** Its reverse-splicing fitness is 0.0195.

**Q.** With GUGCCUUGCGCCGGGAAACCACGCAAGGGAUGGUGUCAAAUUCGGCGAAACCUAAGCGCCCGCCCGGGCGUAUGGCAACGCAGAGCCAAGCUUCGGCGCCUGCGCCGAUGAAGGUGUAGCGACUAGACGGCACCCACCUAAGGCCAACGAUAUGGUGAAGGCAUAGUCAAGGGAGGGGCGAAAGUCACACAAACCGG [C82A A120C A145C C150A C169A U176G] as the variant, how does the reverse-splicing fitness read?
**A.** The reverse-splicing fitness was 0.00574.

**Q.** Which reverse-splicing fitness does the source give for GUGCCUUGCGCCGGGAAACCACGCAAGGGAUGGUGUCAAAUUCGGCGAAACCUAAGCGCCCGCCCGGGCGUAUGGCAACGCAGAGCCAAGCUUCGGCGCCUGCGCCGAUGUAGGUGUAGAGACUAGACGGCACCCACCUAAGGCAAACGUUAUGGUGAAGGCAUAGUCCAGGGAGAGGCGAAAGUCACACAAACCGG [C82A A111U C150U U176A] here?
**A.** Its reverse-splicing fitness is 0.0473.

**Q.** With GUGCCUUGCGCCGGGAAACCACGCAAGGGAUGGUGUCAAAUUCGGCGAAACCUAAGCGCCCGCCCGGGCGUAUGGCAACGCAGAGCCAAGCUUCGGCGCCUGCGCCGAUGUAGGUGUAGAGACUAGACGGCACCCACCUAAGGCAAACGUUAUGGUGAAGGCAUAGUCCAGGGAGCGGCGAAAGUCACACAAACCGG [C82A A111U C150U U176C] as the variant, how does the reverse-splicing fitness read?
**A.** The reverse-splicing fitness was 0.0751.

**Q.** Which reverse-splicing fitness does the source give for GUGCCUUGCGCCGGGAAACCACGCAAGGGAUGGUGUCAAAUUCGGCGAAACCUAAGCGCCCGCCCGGGCGUAUGGCAACGCAGAGCCAAGCUUCGGCGCCUGCGCCGAUGUAGGUGUAGAGACUAGACGGCACCCACCUAAGGCAAACGUUAUGGUGAAGGCAUAGUCCAGGGAGGGGCGAAAGUCACACAAACCGG [C82A A111U C150U U176G] here?
**A.** The reverse-splicing fitness was 0.0161.

**Q.** Which reverse-splicing fitness does the source give for GUGCCUUGCGCCGGGAAACCACGCAAGGGAUGGUGUCAAAUUCGGCGAAACCUAAGCGCCCGCCCGGGCGUAUGGCAACGCAGAGCCAAGCUUCGGCGCCUGCGCCGAUGUAGGUGUAGAGACUAGACGGCACCCACCUAAGGCAAACGUUAUGGUGAAGGCAUAGUCUAGGGAGAGGCGAAAGUCACACAAACCGG [C82A A111U C150U C169U U176A] here?
**A.** Its reverse-splicing fitness is 0.0146.

**Q.** Which reverse-splicing fitness does the source give for GUGCCUUGCGCCGGGAAACCACGCAAGGGAUGGUGUCAAAUUCGGCGAAACCUAAGCGCCCGCCCGGGCGUAUGGCAACGCAGAGCCAAGCUUCGGCGCCUGCGCCGAUGUAGGUGUAGAGACUAGACGGCACCCACCUAAGGCAAACGUUAUGGUGAAGGCAUAGUCUAGGGAGGGGCGAAAGUCACACAAACCGG [C82A A111U C150U C169U U176G] here?
**A.** The reverse-splicing fitness was 0.00671.

**Q.** With GUGCCUUGCGCCGGGAAACCACGCAAGGGAUGGUGUCAAAUUCGGCGAAACCUAAGCGCCCGCCCGGGCGUAUGGCAACGCAGAGCCAAGCUUCGGCGCCUGCGCCGAUGUAGGUGUAGAGACUAGACGGCACCCACCUAAGGCAAACGUUAUGGUGAAGGCAUAGUCUAGGGAGCGGCGAAAGUCACACAAACCGG [C82A A111U C150U C169U U176C] as the variant, how does the reverse-splicing fitness read?
**A.** Its reverse-splicing fitness is 0.0146.

**Q.** Which reverse-splicing fitness does the source give for GUGCCUUGCGCCGGGAAACCACGCAAGGGAUGGUGUCAAAUUCGGCGAAACCUAAGCGCCCGCCCGGGCGUAUGGCAACGCAGAGCCAAGCUUCGGCGCCUGCGCCGAUGUAGGUGUAGAGACUAGACGGCACCCACCUAAGGCAAACGCUAUGGUGAAGGCAUAGUCCAGGGAGCGGCGAAAGUCACACAAACCGG [C82A A111U U176C] here?
**A.** Its reverse-splicing fitness is 0.158.

**Q.** For GUGCCUUGCGCCGGGAAACCACGCAAGGGAUGGUGUCAAAUUCGGCGAAACCUAAGCGCCCGCCCGGGCGUAUGGCAACGCAGAGCCAAGCUUCGGCGCCUGCGCCGAUGUAGGUGUAGAGACUAGACGGCACCCACCUAAGGCAAACGCUAUGGUGAAGGCAUAGUCCAGGGAGGGGCGAAAGUCACACAAACCGG [C82A A111U U176G], which reverse-splicing fitness is on record?
**A.** Its reverse-splicing fitness is 0.026.
